We go through 1 molecule from article PMC5566378.

The target of this assay is human IL-17RA extracellular domain (human), Q96F46. Nature of the assay: SPR. Conditions: ligand; chains chain; biotin on the Avi-tag (E. coli BirA), for the SPR measurements only; remark: other sources report otherwise.

B1: human IL-17F homodimer, Q96PD4 31-163 (protein)
chain: RKIPKVGHTFFQKPESCPPVPGGSMKLDIGIINENQRVSMSRNIESRSTSPWNYTVTWDPNRYPSEVVQAQCRNLGCINAQGKEDISMNSVPIQQETLVVRRKHQGCSVSFQLEKVLVTVGCTCVTPVIHHVQ
As to B1, the Kd (as a rule, the equilibrium constant for the complex coming apart) came to 136 nM.
